The record followed here is article PMC11998537, “Restriction of influenza A virus replication by host DCAF7-CRL4B axis” (Journal of Virology, 2025).

The target in one experiment is T1, His-PB1 (influenza A/Puerto Rico/8/1934 (PR8, …, UniProt P03431 1-757)).
T1 construct: source: E. coli BL21, purified
Put plainly: pull-down. Particulars: both partners purified.

In another experiment the target is T2, His-PB2 (influenza A/Puerto Rico/8/1934 (PR8, …, UniProt P03428 1-759)).
T2 construct: source: E. coli BL21, purified
Kind of experiment: pull-down. Particulars: both partners purified.

B1: GST-DCAF7 (natural protein, human, UniProt P61962 1-342, looked up)
chain: MSLHGKRKEIYKYEAPWTVYAMNWSVRPDKRFRLALGSFVEEYNNKVQLVGLDEESSEFICRNTFDHPYPTTKLMWIPDTKGVYPDLLATSGDYLRVWRVGETETRLECLLNNNKNSDFCAPLTSFDWNEVDPYLLGTSSIDTTCTIWGLETGQVLGRVNLVSGHVKTQLIAHDKEVYDIAFSRAGGGRDMFASVGADGSVRMFDLRHLEHSTIIYEDPQHHPLLRLCWNKQDPNYLATMAMDGMEVVILDVRVPCTPVARLNNHRACVNGIAWAPHSSCHICTAADDHQALIWDIQQMPRAIEDPILAYTAEGEINNVQWASTQPDWIAICYNNCLEILRV
notes: source: E. coli BL21, purified
Regarding B1, the binding result with His-PB1 and in the experiment with His-PB2 was “binds” each time.
